Data from article PMC5548138 (Neuron, 2017).

Molecular target: recombinant bovine NX-1α protein (btNX-1α), ectodomain L1-L6 his6 (bovine, UniProt Q28146 31-1454)
Experiment: co-IP

Chain of recombinant bovine NX-1α protein (btNX-1α), ectodomain L1-L6 his6 (Q28146 31-1454): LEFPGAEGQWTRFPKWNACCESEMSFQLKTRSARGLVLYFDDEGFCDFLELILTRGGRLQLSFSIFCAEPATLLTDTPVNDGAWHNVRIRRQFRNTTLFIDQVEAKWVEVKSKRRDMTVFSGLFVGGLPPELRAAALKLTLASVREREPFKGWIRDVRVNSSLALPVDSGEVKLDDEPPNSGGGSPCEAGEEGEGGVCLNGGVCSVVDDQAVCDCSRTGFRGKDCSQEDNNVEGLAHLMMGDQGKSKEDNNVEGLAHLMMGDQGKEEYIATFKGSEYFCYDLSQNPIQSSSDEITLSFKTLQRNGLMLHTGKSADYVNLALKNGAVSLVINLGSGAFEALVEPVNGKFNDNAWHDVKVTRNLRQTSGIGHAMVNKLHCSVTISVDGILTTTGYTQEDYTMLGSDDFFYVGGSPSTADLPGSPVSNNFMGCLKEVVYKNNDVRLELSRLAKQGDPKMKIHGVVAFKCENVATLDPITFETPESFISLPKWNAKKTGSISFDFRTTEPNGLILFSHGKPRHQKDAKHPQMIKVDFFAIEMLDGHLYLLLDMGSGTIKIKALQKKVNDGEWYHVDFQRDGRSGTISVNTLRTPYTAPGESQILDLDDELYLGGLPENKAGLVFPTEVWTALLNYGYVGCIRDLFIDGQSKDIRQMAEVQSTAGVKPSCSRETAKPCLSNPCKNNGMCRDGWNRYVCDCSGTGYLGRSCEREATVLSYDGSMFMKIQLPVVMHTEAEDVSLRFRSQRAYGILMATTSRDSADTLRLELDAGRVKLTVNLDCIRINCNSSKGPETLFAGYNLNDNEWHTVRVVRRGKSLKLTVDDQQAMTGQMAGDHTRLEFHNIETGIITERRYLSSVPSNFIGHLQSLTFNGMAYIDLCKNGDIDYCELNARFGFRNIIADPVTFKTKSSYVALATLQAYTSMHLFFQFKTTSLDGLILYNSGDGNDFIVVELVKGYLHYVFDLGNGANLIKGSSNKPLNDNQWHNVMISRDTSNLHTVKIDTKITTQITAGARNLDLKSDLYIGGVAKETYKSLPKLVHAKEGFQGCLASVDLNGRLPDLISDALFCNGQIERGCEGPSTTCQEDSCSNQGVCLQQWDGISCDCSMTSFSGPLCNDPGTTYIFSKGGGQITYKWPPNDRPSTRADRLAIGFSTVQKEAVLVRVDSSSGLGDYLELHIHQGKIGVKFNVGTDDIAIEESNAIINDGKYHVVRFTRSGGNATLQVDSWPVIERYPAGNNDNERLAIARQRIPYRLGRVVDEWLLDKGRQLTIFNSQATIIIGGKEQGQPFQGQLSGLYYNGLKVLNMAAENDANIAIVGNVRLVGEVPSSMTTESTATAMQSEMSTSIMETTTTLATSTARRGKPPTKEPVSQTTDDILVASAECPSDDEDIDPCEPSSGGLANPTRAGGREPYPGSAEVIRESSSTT

- Kd: ~40 nM
B1: HA-tagged α2δ-3 (mouse) (natural protein, UniProt Q9Z1L5 34-1091, looked up)
chain: EQQIPLSVVKLWASAFGGEIKSIAAKYSGSQLLQKKYKEYEKDVAIEEIDGLQLVKKLAKIMEEMFHKKSEAVRRLVEAAEEAHLKHEFDADLQYEYFNAVLINERDKDGNFLELGKEFILAPNDHFNNLPVNISLSDVQVPTNMYNKDPAIVNGVYWSESLNKVFVDNFDRDPSLIWQYFGSAKGFFRQYPGIKWEPDENGVIAFDCRNRKWYIQAATSPKDVVILVDVSGSMKGLRLTIAKQTVSSILDTLGDDDFFNIITYNEELHYVEPCLNGTLVQADRTNKEHFREHLDKLFAKGIGMLDIALNEAFNILSDFNHTGQGSICSQAIMLITDGAVDTYDTIFAKYNWPDRKVRIFTYLIGREAAFADNLKWMACANKGFFTQISTLADVQENVMEYLHVLSRPKVIDQEHDVVWTEAYIDSTLPQAQKLADDQGLVLMTTVAMPVFSKQNETRSKGILLGVVGTDVPVKELLKTIPKYKLGIHGYAFAITNNGYILTHPELRPLYEEGKKRRKPNYSSVDLSEVEWEDRDDVLRNAMVNRKTGKFSMEVKKTVDKGKRVLVMTNDYYYTDIKGTPFSLGVALSRGHGKYFFRGNVTIEEGLHDLEHPDVSLADEWSYCNTDLHPEHRHLSQLEAIKLYLKGKEPLLQCDKELIQEVLFDAVVSAPIEAYWTSLALNKSENSDKGVEVAFLGTRTGLSRINLFVGAEQLTNQDFLKAGDKENIFNADHFPLWYRRAAEQIAGSFVYSIPFSTGTVNKSNVVTASTSIQLLDERKSPVVAAVGIQMKLEFFQRKFWTASRQCASLDGKCSISCDDETVNCYLIDNNGFILVSEDYTQTGDFFGEVEGAVMNKLLTMGSFKRITLYDYQAMCRANKESSDSAHGLLDPYKAFLSAAKWIMTELVLFLVEFNLCSWWHSDMTAKAQKLKQTLEPCDTEYPAFVSERTIKETTGNIACEDCSKSFVIQQIPSSNLFMVVVDSSCLCESVAPITMAPIEIRYNESLKCERLKAQKIRRRPESCHGFHPEENARECGGASSLQAQAALLLLPLVSSLFSR
